{
  "source": "patent US20250188184A1",
  "data": [
    {"target": "CD3 (target of the Pool 1 CD3.23 screen)", "sequence (P07766 23-126)": "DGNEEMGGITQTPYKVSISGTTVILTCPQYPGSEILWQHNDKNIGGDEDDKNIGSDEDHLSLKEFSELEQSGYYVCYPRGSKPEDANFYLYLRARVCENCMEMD", "assay": "Octet, crude lysate", "units": {"Kd": "nM"}, "values": [
      {"binder": "CD3.98 (AC3427) (bispecific antibody, V domains shown) VH: EVQLLESGGGIVQPGGSLKLSCAASGFTFNTYAMNWVRQAPGKGLEWVARIRSKYNNYATYYADSVKDRFTISRDDSKNTVSLQMNNLKTEDTAVYYCVRHENFGNSYVSWFAHWGQGTLVTVSS VL: ELVVTQEPSLTVSPGGTVTLTCRSSNGAVTSSNYANWVQQKPGQAPRGLIGGTNKRAPGTPARFSGSLLGGKAALTLSGVQPEDEAVYYCALWYPNLWVFGGGTKLTVL", "Kd": 9.6},
      {"binder": "CD3.104 (AC3433) (bispecific antibody, V domains shown) VH: EVQLLESGGGIVQPGGSLKLSCAASGFTFNTYAMNWVRQAPGKGLEWVARIRSKYNNYATYYADSVKDRFTISRDDSKNTVYLQMNNLKTEDTAVYYCVRHENFGNSYVSWFAHWGQGTLVTVSS VL: ELVVTQEPSLTVSPGGTVTLTCRSSNGAVTSSNYANWVQQKPGQAPRGLIGGTNKRAPGTPARFSGSLQGGKAALTLSGVQPEDEAVYYCALWYPNLWVFGGGTKLTVL", "Kd": 4.6},
      {"binder": "CD3.105 (AC3434) (bispecific antibody, V domains shown) VH: EVQLLESGGGIVQPGGSLKLSCAASGFTFNTYAMNWVRQAPGKGLEWVARIRSKYNNYATYYADSVKDRFTISRDDSKNTVYLQMNNLKTEDTAVYYCVRHENFGNSYVSWFAHWGQGTLVTVSS VL: ELVVTQEPSLTVSPGGTVTLTCRSSNGAVTSSNYANWVQQKPGQAPRGLIGGTNKRAPGTPARFSGSLLEGKAALTLSGVQPEDEAVYYCALWYPNLWVFGGGTKLTVL", "Kd": 4.9},
      {"binder": "CD3.110 (AC3439) (bispecific antibody, V domains shown) VH: EVQLLESGGGIVQPGGSLKLSCAASGFTFNTYAMNWVRQAPGKGLEWVARIRSKYNNYATYYADSVKDRFTISRDDSKNTVYLQMNNLKTEDTAVYYCVRHENFGNSYVSWFAHWGQGTLVTVSS VL: ELVVTQEPSLTVSPGGTVTLTCRSSNGAVTSSNYANWVQQKPGQAPRGLIGGTNKRAPGTPARFSGSTLGGKAALTLSGVQPEDEAVYYCALWYPNLWVFGGGTKLTVL", "Kd": 8.9},
      {"binder": "CD3.108 (AC3437) (bispecific antibody, V domains shown) VH: EVQLLESGGGIVQPGGSLKLSCAASGFTFNTYAMNWVRQAPGKGLEWVARIRSKYNNYATYYADSVKDRFTISRDDSKNTVYLQMNNLKTEDTAVYYCVRHENFGNSYVSWFAHWGQGTLVTVSS VL: ELVVTQEPSLTVSPGGTVTLTCRSSNGAVTSSNYANWVQQKPGQAPRGLIGGTNKRAPGTPARFSGSKLGGKAALTLSGVQPEDEAVYYCALWYPNLWVFGGGTKLTVL", "Kd": 3.2},
      {"binder": "CD3.101 (AC3430) (bispecific antibody, V domains shown) VH: EVQLLESGGGIVQPGGSLKLSCAASGFTFNTYAMNWVRQAPGKGLEWVARIRSKYNNYATYYADSVKDRFTISRDDSKNTVYLQMNSLKTEDTAVYYCVRHENFGNSYVSWFAHWGQGTLVTVSS VL: ELVVTQEPSLTVSPGGTVTLTCRSSNGAVTSSNYANWVQQKPGQAPRGLIGGTNKRAPGTPARFSGSLLGGKAALTLSGVQPEDEAVYYCALWYPNLWVFGGGTKLTVL", "Kd": 4.8},
      {"binder": "CD3.106 (AC3435) (bispecific antibody, V domains shown) VH: EVQLLESGGGIVQPGGSLKLSCAASGFTFNTYAMNWVRQAPGKGLEWVARIRSKYNNYATYYADSVKDRFTISRDDSKNTVYLQMNNLKTEDTAVYYCVRHENFGNSYVSWFAHWGQGTLVTVSS VL: ELVVTQEPSLTVSPGGTVTLTCRSSNGAVTSSNYANWVQQKPGQAPRGLIGGTNKRAPGTPARFSGSLDGGKAALTLSGVQPEDEAVYYCALWYPNLWVFGGGTKLTVL", "Kd": 6.1},
      {"binder": "CD3.99 (AC3428) (bispecific antibody, V domains shown) VH: EVQLLESGGGIVQPGGSLKLSCAASGFTFNTYAMNWVRQAPGKGLEWVARIRSKYNNYATYYADSVKDRFTISRDDSKNTVYLQMNELKTEDTAVYYCVRHENFGNSYVSWFAHWGQGTLVTVSS VL: ELVVTQEPSLTVSPGGTVTLTCRSSNGAVTSSNYANWVQQKPGQAPRGLIGGTNKRAPGTPARFSGSLLGGKAALTLSGVQPEDEAVYYCALWYPNLWVFGGGTKLTVL", "Kd": 5.9},
      {"binder": "CD3.102 (AC3431) (bispecific antibody, V domains shown) VH: EVQLLESGGGIVQPGGSLKLSCAASGFTFNTYAMNWVRQAPGKGLEWVARIRSKYNNYATYYADSVKDRFTISRDDSKNTVYLQMNYLKTEDTAVYYCVRHENFGNSYVSWFAHWGQGTLVTVSS VL: ELVVTQEPSLTVSPGGTVTLTCRSSNGAVTSSNYANWVQQKPGQAPRGLIGGTNKRAPGTPARFSGSLLGGKAALTLSGVQPEDEAVYYCALWYPNLWVFGGGTKLTVL", "Kd": 5.5},
      {"binder": "CD3.109 (AC3438) (bispecific antibody, V domains shown) VH: EVQLLESGGGIVQPGGSLKLSCAASGFTFNTYAMNWVRQAPGKGLEWVARIRSKYNNYATYYADSVKDRFTISRDDSKNTVYLQMNNLKTEDTAVYYCVRHENFGNSYVSWFAHWGQGTLVTVSS VL: ELVVTQEPSLTVSPGGTVTLTCRSSNGAVTSSNYANWVQQKPGQAPRGLIGGTNKRAPGTPARFSGSNLGGKAALTLSGVQPEDEAVYYCALWYPNLWVFGGGTKLTVL", "Kd": 8.3},
      {"binder": "CD3.100 (AC3429) (bispecific antibody, V domains shown) VH: EVQLLESGGGIVQPGGSLKLSCAASGFTFNTYAMNWVRQAPGKGLEWVARIRSKYNNYATYYADSVKDRFTISRDDSKNTVYLQMNQLKTEDTAVYYCVRHENFGNSYVSWFAHWGQGTLVTVSS VL: ELVVTQEPSLTVSPGGTVTLTCRSSNGAVTSSNYANWVQQKPGQAPRGLIGGTNKRAPGTPARFSGSLLGGKAALTLSGVQPEDEAVYYCALWYPNLWVFGGGTKLTVL", "Kd": 7.1},
      {"binder": "CD3.107 (AC3436) (bispecific antibody, V domains shown) VH: EVQLLESGGGIVQPGGSLKLSCAASGFTFNTYAMNWVRQAPGKGLEWVARIRSKYNNYATYYADSVKDRFTISRDDSKNTVYLQMNNLKTEDTAVYYCVRHENFGNSYVSWFAHWGQGTLVTVSS VL: ELVVTQEPSLTVSPGGTVTLTCRSSNGAVTSSNYANWVQQKPGQAPRGLIGGTNKRAPGTPARFSGSSLGGKAALTLSGVQPEDEAVYYCALWYPNLWVFGGGTKLTVL", "Kd": 7.3}
    ]}
  ]
}
